Columns and labels:
[1] = target: histone H1 present on surfaces of apoptotic cells (apoptotic SNU16 human stomach cancer cells) (human) (UniProt P07305); assay: flow cytometry, FITC-peptide on SNU16 cells treated with cisplatin and cetuximab in combination for 24 h
[2] = target: histone H1 present on surfaces of apoptotic cells (apoptotic SNU16 human stomach cancer cells) (human) (UniProt P07305); assay: flow cytometry, FITC-peptide on SNU16 cells treated with cisplatin alone for 24 h
[3] = target: histone H1 present on surfaces of apoptotic cells (apoptotic SNU16 human stomach cancer cells) (human) (UniProt P07305); assay: flow cytometry, FITC-peptide on SNU16 cells treated with cetuximab alone for 24 h

| percentage of apoptotic cells detected (peptide-bound fluorescent cells) [1] | percentage of apoptotic cells detected (peptide-bound fluorescent cells) [2] | percentage of apoptotic cells detected (peptide-bound fluorescent cells) [3] | Substance |
| --- | --- | --- | --- |
| 78% | 56% | 49% | cyclic form of ApoPep-1 (cyclo[Cys-Gln-Arg-Pro-Pro-Arg-Cys] peptide) |
| 34% | 28% | 25% | linear form of ApoPep-1 (CQRPPR) (peptide) |

Reference: US20170340698A1, “CYCLIC PEPTIDE SPECIFICALLY BINDING TO APOPTOTIC CELLS AND USE THEREOF” (KYUNGPOOK NATIONAL UNIVERSITY INDUSTRY-ACADEMIC COOPERATION …, priority 2014, published 2017)
